In assay [1] the target is CD20 (human) (UniProt P11836). The assay can be described thus: cell-based or functional assay.
Assay [2] has as its target CD20 (human) (UniProt P11836). The experiment in a line: cell-based or functional assay. This is another data set of the same source.

Like-named read-outs stand apart in the source and are kept apart here.

The results in this text go back to US20130136718A1.

Sequence of CD20 (human) (P11836 whole entry): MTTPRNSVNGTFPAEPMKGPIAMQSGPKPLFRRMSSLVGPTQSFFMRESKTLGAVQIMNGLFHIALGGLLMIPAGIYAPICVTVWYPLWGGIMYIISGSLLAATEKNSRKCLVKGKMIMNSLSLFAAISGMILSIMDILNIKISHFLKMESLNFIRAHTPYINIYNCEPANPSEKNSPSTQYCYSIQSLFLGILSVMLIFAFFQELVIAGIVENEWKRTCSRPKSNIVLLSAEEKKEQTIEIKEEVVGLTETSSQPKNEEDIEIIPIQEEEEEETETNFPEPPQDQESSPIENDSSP

As for 20-2b (from UniProt P01563 24-188), the in vitro proliferation of Jeko-1 cells, high-concentration response, EC50 with CD20 (human) [1] came to 850 pM. Further, in the assay with CD20 (human) [2], the in vitro proliferation of Daudi cells, potency against non-targeting MAb-IFNα constructs turned out to be 30 fold; the in vitro proliferation of Jeko-1 cells, low-concentration response, EC50 was found to be 0.97 pM; the in vitro proliferation of Jeko-1 cells, potency against 734-2b was 25 fold.

Regarding veltuzumab (antibody), the in vitro proliferation of Jeko-1 cells, EC50 with CD20 (human) [1] is 1500 pM; with CD20 (human) [2], 1000 pM.
